The text below walks through data of ChEMBL document CHEMBL2074029, “Substrate specificities of rat oatp1 and ntcp: implications for hepatic organic anion uptake” (Am J Physiol Gastrointest Liver Physiol, 2003).

Holding throughout (assay type): functional, cell-based
Substrate in data set [1]: C[C@H](CCC(=O)NCCS(=O)(=O)O)C1CC[C@H]2[C@@H]3C[C@H](O)[C@@H]4C[C@H](O)CC[C@]4(C)[C@H]3CC[C@]12C
Description: (§1) TP_TRANSPORTER: uptake in Oatp1-expressing HeLa cells.

Substrate in data set [2]: C[C@H](CCC(=O)NCCS(=O)(=O)O)[C@H]1CC[C@H]2[C@@H]3CC[C@@H]4C[C@H](O)CC[C@]4(C)[C@H]3C[C@H](O)[C@]12C
The data set is described as §1.

Substrate in data set [3]: C[C@H](CCC(=O)O)[C@H]1CC[C@H]2[C@@H]3C[C@H](O)[C@@H]4C[C@H](O)CC[C@]4(C)[C@H]3CC[C@]12C
The data set is described as §1.

Substrate in data set [4]: C[C@H](CCC(=O)NCCS(=O)(=O)O)C1CC[C@H]2[C@@H]3C[C@H](O)[C@@H]4C[C@H](O)CC[C@]4(C)[C@H]3CC[C@]12C
In words: (§2) TP_TRANSPORTER: uptake in NTCP-expressing HeLa cells.

Substrate in data set [5]: C[C@H](CCC(=O)NCCS(=O)(=O)O)[C@H]1CC[C@H]2[C@@H]3CC[C@@H]4C[C@H](O)CC[C@]4(C)[C@H]3C[C@H](O)[C@]12C
The data set is described as §2.

Substrate in data set [6]: O=C1OC(c2ccc(O)c(S(=O)(=O)O)c2)(c2ccc(O)c(S(=O)(=O)O)c2)c2c(Br)c(Br)c(Br)c(Br)c21
The description is as §2.

B1: Solute carrier organic anion transporter family member 1A1 (Rattus norvegicus) (protein)
chain: MEETEKKIATQEGRLFSKMKVFLLSLTCACLTKSLSGVYMNSMLTQIERQFDISTSVAGLINGSFEIGNLFFIVFVSYFGTKLHRPVVIGIGCVIMGLGCLLMSLPHFFMGRYEYETTISPTGNLSSNSFLCMENRTQTLKPTQDPAECVKEMKSLMWICVMVGNIIRGIGETPIVPLGISYIEDFAKSENSPLYIGILEMGKVAGPIFGLLLGSYCAQIYVDIGSVNTDDLTITPSDTRWVGAWWIGFLVCAGVNILTSIPFFFLPKALPKKGQQENVAVTKDGKVEKYGGQAREENLGITKDFLTFMKRLFCNPIYMLFILTSVLQVNGFINKFTFLPKYLEQQYGKSTAEAIFLIGVYSLPPICLGYLIGGFIMKKFKITVKKAAYLAFCLSVFEYLLFLCHFMLTCDNAAVAGLTTSYKGVQHQLHVESKVLADCNTRCSCSTNTWDPVCGDNGVAYMSACLAGCKKFVGTGTNMVFQDCSCIQSLGNSSAVLGLCKKGPECANRLQYFLILTIIISFIYSLTAIPGYMVFLRCVKSEEKSLGVGLHTFCIRVFAGIPAPVYFGALIDRTCLHWGTLKCGQRGACRMYDINSFRHIYLGLPIALRGSSYLPAFFILILMRKFQFPGDIDSSATDHTEMMLGEKESEHTDVHGSPQVENDGELKTKL
As for B1, the values for the Michaelis-Menten constant (Km) in data set [1], in data set [2] and in data set [3] were 3.3 µM, 3.5 µM and 17.5 µM, respectively.

B2: Hepatic sodium/bile acid cotransporter (Rattus norvegicus) (protein)
chain: MEVHNVSAPFNFSLPPGFGHRATDKALSIILVLMLLLIMLSLGCTMEFSKIKAHLWKPKGVIVALVAQFGIMPLAAFLLGKIFHLSNIEALAILICGCSPGGNLSNLFTLAMKGDMNLSIVMTTCSSFSALGMMPLLLYVYSKGIYDGDLKDKVPYKGIMISLVIVLIPCTIGIVLKSKRPHYVPYILKGGMIITFLLSVAVTALSVINVGNSIMFVMTPHLLATSSLMPFSGFLMGYILSALFQLNPSCRRTISMETGFQNIQLCSTILNVTFPPEVIGPLFFFPLLYMIFQLAEGLLIIIIFRCYEKIKPPKDQTKITYKAAATEDATPAALEKGTHNGNIPPLQPGPSPNGLNSGQMAN
As for B2, the results for the Km in data set [4], in data set [5] and in data set [6] were 6.8 µM, 7.4 µM and 3.7 µM, respectively.
